Measured values published in patent US20040110287A1, “Multi-step method for the differentiation of insulin positive, glucose responsive cells” (ES Cell International Pte Ltd., priority 2002, published 2004).

Test system: pdx1+ cells
Experiment: Expansion of pdx1+ cells in non-adherent clusters of human pancreatic duct cells
Format: cell-based
Description: Pancreatic duct cells were isolated from human donor tissue, using the methods described in detail in Example 2. The cells were plated as non-adherent cell clusters in DMEM-F12 (pH 7.4), 2 mM glutamine, 1% penicillin-streptomycin, 2% B27 (Life Sciences Technologies) and 8 mM HEPES. Following 1-4 days in culture, the media was changed to DMEM-F12 (pH 6.9-7.1), 2 mM glutamine, 1% penicillin-streptomycin, and 2% B27 (Life Sciences Technologies). This media was supplemented with the following four factors: dexamethasone (10^−7-10^−9 M), forskolin (10 μM), insulin (20 μg/ml) and FGF-18 (20 ng/ml). The media was optionally supplemented with heparin which is often used to enhance the effects of FGF. The cells were cultured for a number of days in this supplemented media which was changed daily.
Following approximately one day in culture, Pdx1+ cells (a marker of pancreatic progenitor cells) began appearing on the surface of the non-adherent clusters. The size and number of Pdx1+ cells continues to increase for approximately 12 days. Following 8 to 12 days in culture under expansion conditions, non-adherent cell clusters containing an increased number of Pdx1+ cells were subjected to a differentiation protocol to produce insulin+, glucose responsive cell clusters.
This effect on pdx1 expression was further augmented if the follistatin-related factor follistatin or a combination of follistatin and the GLP-1 agonist exendin-4 was added to the above list of factors used to supplement the acidic culture medium. Briefly, cultures expanded in forskolin (a cAMP elevating agent), dexamethasone (a corticosteroid), insulin, FGF18 (a FGF family member), heparin (known to potentiate the activity of FGF family members), and follistatin (a follistatin-related factor) contained approximately 281 fold more pdx1+ cells than cells differentiated in the absence of the expansion protocol. […]

B1: follistatin (protein, UniProt P19883 30-344, looked up)
Follistatin: GNCWLRQAKNGRCQVLYKTELSKEECCSTGRLSTSWTEEDVNDNTLFKWMIFNGGAPNCIPCKETCENVDCGPGKKCRMNKKNKPRCVCAPDCSNITWKGPVCGLDGKTYRNECALLKARCKEQPELEVQYQGRCKKTCRDVFCPGSSTCVVDQTNNAYCVTCNRICPEPASSEQYLCGNDGVTYSSACHLRKATCLLGRSIGLAYEGKCIKAKSCEDIQCTGGKKCLWDFKVGRGRCSLCDELCPDSKSDEPVCASDNATYASECAMKEAACSSGVLLEVKHSGSCNSISEDTEEEEEDEDQDYSFPISSILEW
fold more pdx1+ cells than cells differentiated in the absence of the expansion protocol (4 days basal medium, 4 days acidic expansion medium, before differentiation): approximately 281 fold | fold increase in total islet equivalents (IEs) versus multistep differentiation protocol alone (FIG. 5): 281 fold | pdx1 expression versus expansion medium alone (FIG. 6 and FIG. 7, added to expansion medium): increase in pdx1 expression
